# Results: the supplement of paper PMC6757056
# ± gives the standard deviation of the averaged measurements.
# B1: library; a variant is named by its letters at N, in order (parent)
# chain: GCUGUCACCGGUGCUUGGUACGUUAUAUUCAGCCGGUCUGAUGAGUCUNNNNNNAGACGAAACAGC
# Experiments:
# (6R,S)-folinic acid [1] = variants of: B1; assay: normalized RNA/DNA level without ligand (relative to sTRSVctl = 100) (log10 (% of sTRSVctl)); HEK293T overexpressing SLC46A1; higher = less ribozyme self-cleavage, higher mRNA level; conditions: without (6R,S)-folinic acid; ligand present: no
# Method in brief: (§1)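 Library plasmids carrying ribozyme switches linked to mCherry, or to eGFP in some ligand experiments, were transfected into HEK293T at 4 µg per 6-well well, with any ligand added 1 h earlier. Seventy-two hours on, total RNA was extracted with EDTA and reverse-transcribed, amplified, barcoded and sequenced. RNA level was RNA over DNA reads normalized to a spiked-in non-cleaving sequence or to the top sequences, then scaled and log-transformed. The top set was 25 sequences, the transform was ×100 and log10, and sequences needed ≥100 DNA reads.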
# (6R,S)-folinic acid [2] = variants of: B1; assay: normalized RNA/DNA level with ligand (relative to sTRSVctl = 100) (log10 (% of sTRSVctl)); HEK293T overexpressing SLC46A1; ligand concentration (+) RNA-Seq: 6 mM; higher = less ribozyme self-cleavage, higher mRNA level; conditions: with (6R,S)-folinic acid; ligand present: yes
# Method in brief: as §1
Variant,"normalized RNA/DNA level without ligand (log10) ((6R,S)-folinic acid [1])","normalized RNA/DNA level with ligand (log10) ((6R,S)-folinic acid [2])"
ACGCCA,2.037 ± 0.012,2.02 ± 0.035
CCGCCC,2.07 ± 0.025,2.04 ± 0.073
GCGCCC,2.07 ± 0.023,2.04 ± 0.036
UCGCCC,2.05 ± 0.039,2.04 ± 0.033
ACGCCC,2.051 ± 0.0035,2.03 ± 0.059
CCGCCG,2.06 ± 0.024,2.08 ± 0.03
GCGCCG,2.059 ± 0.0092,2.046 ± 0.0097
UCGCCG,2.016 ± 0.0047,2.05 ± 0.032
ACGCCG,2.0192 ± 0.00023,2.029 ± 0.013
CCGCCU,2.087 ± 0.0066,2.08 ± 0.03
GCGCCU,2.1 ± 0.023,2.09 ± 0.047
UCGCCU,2.08 ± 0.043,2.082 ± 0.016
CCGCGA,2.06 ± 0.024,2.06 ± 0.034
GCGCGA,2.047 ± 0.011,2.052 ± 0.018
UCGCGA,2.0026 ± 0.0006,2.02 ± 0.068
ACGCGA,1.986 ± 0.011,2.042 ± 0.0061
CCGCGC,2.067 ± 0.012,2.05 ± 0.068
GCGCGC,2.055 ± 0.0073,2.001 ± 0.011
UCGCGC,2.046 ± 0.014,2.03 ± 0.03
ACGCGC,1.997 ± 0.0046,2.01 ± 0.059

Variant,"normalized RNA/DNA level without ligand (log10) ((6R,S)-folinic acid [1])","normalized RNA/DNA level with ligand (log10) ((6R,S)-folinic acid [2])"
CCGCGG,2.031 ± 0.0025,2.0168 ± 0.0019
GCGCGG,2.064 ± 0.0074,2.03 ± 0.031
UCGCGG,2.067 ± 0.0045,2.084 ± 0.02
ACGCGG,1.965 ± 0.004,2.03 ± 0.066
CCGCGU,2.05 ± 0.026,2.054 ± 0.015
GCGCGU,2.055 ± 0.011,2.04 ± 0.056
UCGCGU,2.033 ± 0.0037,2.04 ± 0.032
ACGCGU,2.022 ± 0.0046,2.02 ± 0.018
CCGCUA,2.01 ± 0.019,2.02 ± 0.043
UCGCUA,2.021 ± 0.015,2.07 ± 0.035
ACGCUA,2.013 ± 0.018,2.03 ± 0.06
CCGCUC,2.112 ± 0.0092,2.09 ± 0.081
GCGCUC,2.05 ± 0.049,2.01 ± 0.043
UCGCUC,2.04 ± 0.028,2.04 ± 0.059
ACGCUC,2.053 ± 0.015,2.05 ± 0.036
CCGCUG,2.047 ± 0.0097,2.067 ± 0.012
GCGCUG,2.11 ± 0.022,2.1 ± 0.024
UCGCUG,2.01 ± 0.021,2.06 ± 0.037
ACGCUG,2.015 ± 0.0048,2.057 ± 0.015
CCGCUU,2.04 ± 0.024,2.0508 ± 0.0014

Variant,"normalized RNA/DNA level without ligand (log10) ((6R,S)-folinic acid [1])","normalized RNA/DNA level with ligand (log10) ((6R,S)-folinic acid [2])"
GCGCUU,2.053 ± 0.018,2.048 ± 0.015
UCGCUU,2.033 ± 0.019,2.01 ± 0.081
CCGGAA,2.005 ± 0.0036,2.01 ± 0.052
GCGGAA,1.978 ± 0.007,2.02 ± 0.048
ACGGAA,1.965 ± 0.0049,2.024 ± 0.0076
CCGGAC,2.05 ± 0.0016,2.042 ± 0.016
GCGGAC,1.972 ± 0.0066,2.05 ± 0.029
UCGGAC,2.048 ± 0.0021,2.0514 ± 0.00022
ACGGAC,2.018 ± 0.015,2.01 ± 0.03
CCGGAG,1.931 ± 0.0037,2.024 ± 0.011
ACGGAG,1.839 ± 0.0062,2.029 ± 0.014
CCGGAU,2.017 ± 0.0056,2.05 ± 0.059
GCGGAU,2.021 ± 0.0026,2.04 ± 0.042
CCGGCA,2.108 ± 0.021,2.049 ± 0.016
GCGGCA,2.071 ± 0.0038,2.07 ± 0.048
UCGGCA,2.03 ± 0.029,2.04 ± 0.034
CCGGCC,2.094 ± 0.013,2.03 ± 0.013
GCGGCC,2.072 ± 0.011,2.077 ± 0.02
